± gives the standard error. Fewer inactive variants are shown than the library holds.
B1: glmS ribozyme (parent)
chain: AUAAAAGCGCCAGAACUACAGAAAUGUAGUUGACGAGGAGGAGGUUUAUCGAAUUUUCGGCGGAUGCCUCCAAA

Experiments:
Conditions in all cases: with glucosamine-6-phosphate
glucosamine-6-phosphate [1] = variants of: B1; assay: self-cleavage kobs at 160 uM GlcN6P; higher = faster cleavage; RNA array
Method in brief: (§1)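 Tiles bearing barcoded ribozyme variants, transcribed in situ by E. coli RNA polymerase on sequenced MiSeq chips, were imaged over ~14 h at 37 °C using a hybridised Cy3 probe. Glucosamine-6-phosphate was supplied at 40 μM to 10 mM in HEPES/KCl/Mg(OAc)2 buffer. kobs came from one- or two-exponential decay fits to normalised per-tile medians, and weighted Michaelis–Menten fits then provided kcat and KM.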

glucosamine-6-phosphate [2] = variants of: B1; assay: self-cleavage kobs at 2500 uM GlcN6P; higher = faster cleavage; RNA array
Method in brief: as §1

glucosamine-6-phosphate [3] = variants of: B1; assay: self-cleavage kobs at 640 uM GlcN6P; higher = faster cleavage; RNA array
Method in brief: as §1

glucosamine-6-phosphate [4] = variants of: B1; assay: self-cleavage kobs at 10000 uM GlcN6P; higher = faster cleavage; RNA array
Method in brief: as §1

Variant | self-cleavage kobs at 160 uM GlcN6P (glucosamine-6-phosphate [1]) [s⁻¹] | self-cleavage kobs at 2500 uM GlcN6P (glucosamine-6-phosphate [2]) [s⁻¹] | self-cleavage kobs at 640 uM GlcN6P (glucosamine-6-phosphate [3]) [s⁻¹] | self-cleavage kobs at 10000 uM GlcN6P (glucosamine-6-phosphate [4]) [s⁻¹]
AUAAAAGCGCCAGAACUACAGAAAUGUAGUUCAAGAGGAGGAGGUUUAUCGAAUUUUCGGCGGAUGGCUACAAA [G32C C34A C67G C70A] | < 1e-05 | – | – | –
AUAAAAGCGCCAGAACUACAGAAAUGUAGUUUACGAGGAGGAGGUUUGUCGAAUUUUCGGCGCAUGCCUCCAAA [G32U A48G G63C] | < 1e-05 | < 1e-05 | – | –
AUAAAAGCGCCAGAACUACAGAAAUGUAGUUAACGAGGAGGAGGUUUAUCCAAUUUUCGGCGGAUGCCUCCAAA [G32A G51C] | < 1e-05 | < 1e-05 | < 1e-05 | –
AUAAAAGCGCCAGAACUACAGAAAUGUAGUAGGUGAGGAGGAGGUUUAUCGAAUUUUCCGCGGAUGCCUCCAAA [U31A A33G C34U G59C] | < 1e-05 | – | < 1e-05 | –
AUAAAAGCGCCAGAACUACAGAAAUGUAGUAGACGAGGAGGAGGUUUAUCGAAUUUUCGGCCGAUGCCUCUAAA [U31A G62C C71U] | < 1e-05 | – | < 1e-05 | –
AUAAAAGCGCCAGAACUACAGAAAUGUAGUGGACGAGGAGGAGGGUUAACGAAUUAUCGGCGGAUGCCUCCAAA [U31G U45G U49A U56A] | < 1e-05 | – | – | < 1e-05
AUAAAAGCGCCAGAACUACAGAAAUGUAGUAGACGAGGAGGAGGUUUAUCGAAUUUUCGGGGGAUGCCUCCAAA [U31A C61G] | < 1e-05 | – | – | < 1e-05
AUAAAAGCGCCAGAACUACAGAAAUGUAGUUUACGAGGAGGAGGUUUAUCGUAUUUUCGGCGGAUGCCUCCAAA [G32U A52U] | < 1e-05 | < 1e-05 | < 1e-05 | –
AUAAAAGCGCCAGAACUACAGAAAUGUAGUCGACGAGGAGGAGGUUUAUCGUAUUUUCGGCGGAUGCCUCGAAA [U31C A52U C71G] | < 1e-05 | – | – | –
AUAAAAGCGCCAGAACUACAGAAAUGUAGUUCACGAGGAGGAGGUUUAUCGAAUUUUCGGCGUAUGCCUCCAAA [G32C G63U] | < 1e-05 | – | < 1e-05 | –
AUAAAAGCGCCAGAACUACAGAAAUGUAGGUGACGAGGAGGAGGUUUAUCGAAGUGUCGGCGGAUGCCUCCAAA [U30G U54G U56G] | 0.00021 ± 5.7e-05 | 0.00255 ± 0.00053 | 0.000994 ± 0.00019 | –
AUAAAAGCGCCAGAACUACAGAAAUGUAGUCGACGAGGAGGAGGUUUAUCGAAUUUUCGGCGGAUGCCACCAAA [U31C U69A] | 4.12e-05 ± 1.4e-05 | 5.91e-05 ± 1.4e-05 | – | –
AUAAAAGCGCCAGAACUACAGAAAUGUAGUUAACGAGGAGGGGGUUUAUCGAAUUAUCGGCGGAUGCCUACAAA [G32A A42G U56A C70A] | < 1e-05 | – | – | –
AUAAAAGCGCCAGAACUACAGAAAUGUAGUUUACGAGGAGGAUGUUUAUCGAAUUUUCGGCGGAUGCCUCCAAA [G32U G43U] | < 1e-05 | < 1e-05 | – | –
AUAAAAGCGCCAGAACUACAGAAAUGUAGUGGUCGAGUAGGAGGUUUAUCGAAUUUUCGGCGGAUGCCUCCAAA [U31G A33U G38U] | < 1e-05 | – | – | –
AUAAAAGCGCCAGAACUACAGAAAUGUAGUCGACGAGGAGAAGGUUUAUCGAAUUUUCUGCGGAUGCCUCCAAA [U31C G41A G59U] | < 1e-05 | < 1e-05 | < 1e-05 | –
AUAAAAGCGCCAGAACUACAGAAAUGUAGUUUACAAGGAGGCGGUUUAUCGAAUUUUCGGCGGAUGCCUCCAAA [G32U G35A A42C] | < 1e-05 | < 1e-05 | < 1e-05 | –
AUAAAAGCGCCAGAACUACAGAAAUGUAGUUCACGAGGCGGAGGAUUAUCGAAUUGUCGGCGGAUGCCUCCAAA [G32C A39C U45A U56G] | < 1e-05 | – | – | –

Variant | self-cleavage kobs at 160 uM GlcN6P (glucosamine-6-phosphate [1]) [s⁻¹] | self-cleavage kobs at 2500 uM GlcN6P (glucosamine-6-phosphate [2]) [s⁻¹] | self-cleavage kobs at 640 uM GlcN6P (glucosamine-6-phosphate [3]) [s⁻¹] | self-cleavage kobs at 10000 uM GlcN6P (glucosamine-6-phosphate [4]) [s⁻¹]
AUAAAAGCGCCAGAACUACAGAAAUGUAGUUUACGAGGAGGAGGUUUAUAGAAUUUUCAGCGGAUGCCUCCAAA [G32U C50A G59A] | < 1e-05 | – | < 1e-05 | –
AUAAAAGCGCCAGAACUACAGAAAUGUAGUUAACGAGGAGGAGGUUUAUCGACUUUUCGGCGGAUGCCUCUAAA [G32A A53C C71U] | 3.67e-05 ± 1.6e-05 | 0.000197 ± 4.7e-05 | 7.17e-05 ± 2.3e-05 | –
AUAAAAGCGCCAGAACUACAGAAAUGUAGUUCAAGAGGAGGAGGUUUAUCGAAUUUUCGGUGGAUGUCUCCAAA [G32C C34A C61U C67U] | < 1e-05 | – | – | –
AUAAAAGCGCCAGAACUACAGAAAUGUAGUAGACGAGGAGGAGGUUUAUCGCAUUUUCGGCGGAUGCCUCCAAA [U31A A52C] | < 1e-05 | < 1e-05 | – | –
AUAAAAGCGCCAGAACUACAGAAAUGUAGUCGACGAGGAGGAGGUUUAUCGAAUUUUCGGCUGAUCCCUCCAAA [U31C G62U G66C] | < 1e-05 | – | – | –
AUAAAAGCGCCAGAACUACAGAAAUGUAGUUCACGAGGAGGAGAUUUUUCGAAUUUUCGGCGGAUGCCUCCAAA [G32C G44A A48U] | < 1e-05 | < 1e-05 | < 1e-05 | –
AUAAAAGCGCCAGAACUACAGAAAUGUAGUCGACGAGGAGGAGGUUUAUCGAAUUGUCGCCGGAUGCCUCCAAA [U31C U56G G60C] | < 1e-05 | – | < 1e-05 | < 1e-05
AUAAAAGCGCCAGAACUACAGAAAUGUAGUUUACGAGGAGGAGGUUUAUCUAAUUUUCGGCGGAUGCCUCCAAA [G32U G51U] | < 1e-05 | – | < 1e-05 | –
AUAAAAGCGCCAGAACUACAGAAAUGUAGUGGUCGAGGAGGAGGUUGAUCGAAUUUUCGGCGGAUGCCUCCAAA [U31G A33U U47G] | < 1e-05 | – | – | –
AUAAAAGCGCCAGAACUACAGAAAUGUAGUAGACGAGGAGGAGGUUUAUCAAAUUUUCGGCGGAUGCCUCCAAA [U31A G51A] | < 1e-05 | < 1e-05 | < 1e-05 | < 1e-05
AUAAAAGCGCCAGAACUACAGAAAUGUAGUUUACGAGGAGGCGGUUUAUCGAAUUUUCGGCGGAUGCCUCCAAA [G32U A42C] | < 1e-05 | < 1e-05 | < 1e-05 | –
AUAAAAGCGCCAGAACUACAGAAAUGUAGGGGACGAGGAGGAGGUUUAUAGUAUUUUCGGCUGAUGCCUCCAAA [U30G U31G C50A A52U G62U] | < 1e-05 | – | – | –
AUAAAAGCGCCAGAACUACAGAAAUGUAGGUGACGAGGAGGAGGUUUAUCGAAUUUCCGGCCGAUGCCUCCAAA [U30G U57C G62C] | < 1e-05 | – | < 1e-05 | –
AUAAAAGCGCCAGAACUACAGAAAUGUAGUAGACCAGGAGGAGGUUUGUCGAAUUUUCGGCGGAUGCCUCCAAA [U31A G35C A48G] | < 1e-05 | – | < 1e-05 | –
AUAAAAGCGCCAGAACUACAGAAAUGUAGUUAACGAGGAGGGCGUUUAUCUAAUUUUCGGCGGAUCCCUCCAAA [G32A A42G G43C G51U G66C] | < 1e-05 | – | < 1e-05 | –
AUAAAAGCGCCAGAACUACAGAAAUGUAGUUCACGAGUAGGAAGUUUAUCGAAUUUUCGGCGGAUGACUCCAAA [G32C G38U G43A C67A] | < 1e-05 | < 1e-05 | – | –
AUAAAAGCGCCAGAACUACAGAAAUGUAGUUUACGAGGAGUAGGUUUAUCGAAUUUUCGACGGAUGCCUCCAAA [G32U G41U G60A] | < 1e-05 | < 1e-05 | – | –
AUAAAAGCGCCAGAACUACAGAAAUGUAGUAGACCAGGAGGAGGUUUAUCGAAAUUUCGGCGGUUGCCUCCAAA [U31A G35C U54A A64U] | < 1e-05 | < 1e-05 | – | –
